# According to publication PMC5861430 (Nucleic Acids Research, 2018):
# T1: GST-APE2 (Xenopus laevis, UniProt Q6DDT4 1-517)
# T1 sequence (looked up): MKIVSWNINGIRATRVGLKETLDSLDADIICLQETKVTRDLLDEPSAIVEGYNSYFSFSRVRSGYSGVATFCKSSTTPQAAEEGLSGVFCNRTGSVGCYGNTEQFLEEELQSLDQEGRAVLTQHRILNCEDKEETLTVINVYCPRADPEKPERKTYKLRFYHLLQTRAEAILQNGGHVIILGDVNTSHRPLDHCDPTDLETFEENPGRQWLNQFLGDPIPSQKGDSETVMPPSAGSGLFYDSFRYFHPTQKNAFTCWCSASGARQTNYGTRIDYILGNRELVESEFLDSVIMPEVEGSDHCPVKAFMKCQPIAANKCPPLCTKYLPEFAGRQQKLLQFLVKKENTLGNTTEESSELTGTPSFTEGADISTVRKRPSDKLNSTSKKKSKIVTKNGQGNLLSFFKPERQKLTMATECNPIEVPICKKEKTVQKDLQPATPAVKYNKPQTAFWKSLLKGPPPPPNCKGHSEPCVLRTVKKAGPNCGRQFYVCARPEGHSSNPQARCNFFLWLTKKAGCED
# B1: WT His-tagged PCNA (natural protein, Xenopus laevis, UniProt P18248 1-261, looked up)
# chain: MFEARLVQGSILKKVLEALKDLIDEACWDITSSGISLQSMDSSHVSLVQLTLRSDGFDTYRCDRNQSIGVKMSSMSKILKCAASDDIITLRAEDNADTVTMVFESPNQEKVSDYEMKLMDLDVEQLGIPEQEYSCVIKMPSGEFARICRDLSQIGDAVVISCAKDGVKFSASGELGTGNVKLSQTSNVDKEEEAVTIEMNEPVQLTFALRYLNFFTKATPLSPTVILSMSADIPLVVEYKIADMEHVKYYLAPKIEDEEAS
# B2: GST-APE2-ZF (domain or fragment, Xenopus laevis, UniProt Q6DDT4 456-517, looked up)
# chain: GPPPPPNCKGHSEPCVLRTVKKAGPNCGRQFYVCARPEGHSSNPQARCNFFLWLTKKAGCED
# What was measured:
# Experiment in all cases: pull-down
# GST-APE2 = molecular target: T1, GST-APE2
# [1] = molecular target: PK PCNA (P253A-K254A PCNA) (Xenopus laevis, UniProt P18248 1-261, P253A | K254A)
# WT His-tagged PCNA = molecular target: B1
Binder,binding result (GST-APE2),binding result [1],binding result (WT His-tagged PCNA)
B1,binds,,
B2,,binds,binds
